Where a chain is given by its changes, count along the chain named. Names and notes keep the numbering of the source.
B1: GST-GMPR, bacterially purified (enzyme, human)
chain: MPRIDADLKLDFKDVLLRPKRSSLKSRAEVDLERTFTFRNSKQTYSGIPIIVANMDTVGTFEMAAVMSQHSMFTAIHKHYSLDDWKLFATNHPECLQNVAVSSGSGQNDLEKMTSILEAVPQVKFICLDVANGYSEHFVEFVKLVRAKFPEHTIMAGNVVTGEMVEELILSGADIIKVGVGPGSVCTTRTKTGVGYPQLSAVIECADSAHGLKGHIISDGGCTCPGDVAKAFGAGADFVMLGGMFSGHTECAGEVFERNGRKLKLFYGMSSDTAMNKHAGGVAEYRASEGKTVEVPYKGDVENTILDILGGLRSTCTYVGAAKLKELSRRATFIRVTQQHNTVFS
B2: GST-GMPR^Y267F, bacterially purified (enzyme, human)
chain: B1 chain with Y267F

Molecular target: EPHA4-Flag protein purified from transfected 293FT cells (human, UniProt P54764 20-986)
Sequence (P54764 20-986): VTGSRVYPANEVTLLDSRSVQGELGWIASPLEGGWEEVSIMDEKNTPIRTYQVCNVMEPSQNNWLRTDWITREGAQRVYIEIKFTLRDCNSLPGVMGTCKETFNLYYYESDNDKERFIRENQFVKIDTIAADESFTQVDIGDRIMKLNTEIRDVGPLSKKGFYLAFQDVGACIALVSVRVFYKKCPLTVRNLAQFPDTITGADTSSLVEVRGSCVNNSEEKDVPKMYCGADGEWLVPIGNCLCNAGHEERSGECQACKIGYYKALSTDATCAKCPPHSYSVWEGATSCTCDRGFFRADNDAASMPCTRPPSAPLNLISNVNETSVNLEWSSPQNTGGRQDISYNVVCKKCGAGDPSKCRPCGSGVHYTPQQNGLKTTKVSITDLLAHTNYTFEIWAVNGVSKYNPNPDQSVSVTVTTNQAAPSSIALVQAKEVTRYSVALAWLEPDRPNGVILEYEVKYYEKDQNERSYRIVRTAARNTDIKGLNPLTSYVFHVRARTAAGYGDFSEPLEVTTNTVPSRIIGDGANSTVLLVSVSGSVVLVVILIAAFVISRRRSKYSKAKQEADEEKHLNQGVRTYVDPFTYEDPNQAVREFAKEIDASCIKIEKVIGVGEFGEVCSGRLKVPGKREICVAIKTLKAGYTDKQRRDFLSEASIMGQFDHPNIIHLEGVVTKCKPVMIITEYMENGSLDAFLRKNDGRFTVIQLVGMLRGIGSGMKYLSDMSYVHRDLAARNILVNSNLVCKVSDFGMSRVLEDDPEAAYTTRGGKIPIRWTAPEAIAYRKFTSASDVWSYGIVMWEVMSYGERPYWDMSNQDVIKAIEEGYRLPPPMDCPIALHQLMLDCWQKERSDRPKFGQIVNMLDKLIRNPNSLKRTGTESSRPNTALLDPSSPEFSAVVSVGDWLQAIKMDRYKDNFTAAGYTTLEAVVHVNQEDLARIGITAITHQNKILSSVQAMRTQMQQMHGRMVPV
Assay: pull-down

Binder | binding result
B1 | binds
B2 | binds

From PMC9620470 (Cell chemical biology, 2022)
